Measured values: article PMC10269571

Target: 3M2e-ferritin nanoparticle (three copies of M2e of H1N1 influenza virus fused to the N terminus of H. pylori ferritin) (influenza A virus H1N1 | Helicobacter pylori)
Test: native gel or EMSA

In the case of “3M2e-ferritin nanoparticle (three copies of M2e of H1N1 influenza virus fused to the N terminus of H. pylori ferritin)”, the stoichiometry N is reported as 24.
